Data on eight molecules can be found in article PMC10732398 (PLOS Pathogens, 2023).

In test [1] the target is BG505 SOSIP env trimer (HIV-1 BG505). Briefly: SPR.
Test [2] addresses BG505 gp120 (monomeric gp120) (HIV-1 BG505). Briefly: SPR.
The target of test [3] is CD4 D1D2 protein (23 kD, aa 1-183) (human). Briefly: SPR.
Test [4] has as its system ⍺4β7. Briefly: SPR: inhibition by linear peptides of soluble ⍺4β7 binding to a CD4 D1D2 coated surface. The following applies: for inhibition of ⍺4β7 binding to CD4 D1D2 coated surface: SPR peptide scan (Fig 4A), ⍺4β7 pre-incubated with peptide 2 hours at room temperature, 1 mM MnCl2; for inhibition of ⍺4β7 binding to D1D2 (in words): SPR, Fig 7B, 7D, S5 Fig. From the text: We next modified our SPR -based assay in order to map the site(s) on CD4 that interacts with ⍺4β7. In this modified assay ⍺4β7 was passed over a surface coated with CD4 D1D2 in the absence or presence of 42 overlapping 15 amino acid linear peptides spanning CD4 residues 1–178 (S2 Table). Two peptides located in CD4 D1, #7 and #9, inhibited ⍺4β7 binding by ~17% (Fig 4A). The final peptide in CD4 D2, p42, inhibited binding by ~ 66%. Linear peptides often lack the true conformation of the protein from which they are derived. Additionally, the kinetic format of our assay allows for ligand-analyte rebinding during the association phase. These features render this inhibition assay somewhat insensitive. Nevertheless, the dynamic range of this assay is sufficient to identify interactions that are worthy of follow-up investigation (S4 Fig). As such, our preliminary findings raised the possibility that both D1 and D2 domains of CD4 interact with ⍺4β7. Of note, MAdCAM-1 and VCAM-1, like CD4, present two tandemly arrayed N-terminal IgSF domains (Fig 4B). In both cases, binding to ⍺4β7 is mediated by a 1° binding site in their D1s and an accessory site, located in their D2s. The term accessory is a misnomer insofar as these sites plays an essential role in ⍺4β7 binding. Follow-up experiments focused on p9 and p42, which we herein refer to as pCD4^33-47 and pCD4^165-178. pCD4^33-47 partially overlaps the D1 C’C” β-strands and a connecting loop. The primary gp120 contact site (Phe^43) lies at the N-terminal edge of this loop (Fig 4C). pCD4^165-178 includes Q^165 and K^166. These residues lie primarily within the G β-strand of D2, close to the boundary with D3. Because peptide inhibition assays sometime mediate nonspecific effects, further analysis was performed to better establish the role of these two regions of CD4 in binding to ⍺4β7.
To determine if this is the case, we employed an SPR -based assay. Biosensor surfaces were coated with either CD4 D1D2 or a 42 aa cyclic V2 peptide derived from the subtype E 92TH023 gp120 (cV2 92TH023). A third surface coated with MAdCAM-Ig was employed as a positive control. Soluble ⍺4β7 was passed over these surfaces. We then evaluated the capacity of staggered 15 aa peptides that span either CD4 D2 or gp120 V2 to inhibit this interaction (Fig 7A).
Experiments were performed using a Biacore 3000 instrument (Cytiva Life Sciences) using CM4 or CM5 sensor chips. The data were evaluated using BIAevaluation 4.1.1 software (Cytiva Life Sciences). The chip surface was activated by injecting 35 μl of a 1:1 mixture of 0.05 M N-hydroxysuccinimide and 0.2 M N-ethyl-N-(dimethylaminopropyl) carbodiimide at 5 μl/min. NeutrAvidin, HIV gp120, sCD4 (D1D2) or Hu-MAdCAM-Ig (R&D Systems) at concentrations of 5 μg/ml in 10mM NaOAc, pH 4.5, were immobilized to 250–750 resonance units (RU). After the proteins were immobilized to the desired densities, unreacted sites were blocked with 35 μl of 1 M Tris-HCl (pH 8.0). Biotinylated cyclic V2 peptides (1 μg/ml in 20 mM Tris-HCl, pH 8.0) were bound to the NeutrAvidin surfaces to densities of approximately 250–300 RU. One surface was activated and blocked without ligand as a control surface for non-specific binding. Signal from the control surface was subsequently subtracted. Running buffer was HBS (pH 7.4), 1 mM MnCl2, 0.005% Tween- 20, 0.05% soluble carboxymethyl-dextran. Binding experiments were carried out at a flow rate of 25 μl/min at 25°C. After a 2 min injection, the surface was washed for an additional 2 min in running buffer allowing dissociation of the bound ligand from the surface. The surfaces were regenerated by multiple injections of 4.5 M MgCl2 at a flow rate of 100 μl/min. Inhibition of ⍺4β7 binding by linear V2-loop and CD4 derived peptides was carried out by pre-incubating ⍺4β7 with the peptides in running buffer at the indicated concentrations for 2 hours at room temperature prior to passing them over the prepared surfaces as described above. […]

The target in test [5] is T1, soluble α4β7 (recombinant integrin α4β7) (UniProt P13612 35-977; P26010 20-723).
T1 construct: also called integrin ⍺4β7; recombinant ⍺4β7
The test is described as follows: SPR. The following applies: both partners purified.

In test [1], “soluble α4β7 (recombinant integrin α4β7) (from UniProt P13612 35-977; P26010 20-723) (complex)” registered a Ka of 7.47e+08 M⁻¹, a Kd of 1.34 nM, a koff of 0.00112 s⁻¹ and a kon of 840000 M⁻¹ s⁻¹. In test [2], this molecule registered a Ka of 1.01e+09 M⁻¹, a Kd of 0.994 nM, a dissociation rate constant (koff) of 0.00136 s⁻¹ and a kon of 1.37e+06 M⁻¹ s⁻¹. In test [3], the Ka stood at 2.8e+08 M⁻¹, the off-rate (koff) came to 0.000464 s⁻¹ and the kon came out at 130000 M⁻¹ s⁻¹.
On to “QFHWKNSNQIKILGN [CD4 P7, overlapping linear CD4 peptide, CD4 D1]”, for which the “inhibition of ⍺4β7 binding to CD4 D1D2 coated surface” value in test [4] is on record as ~ 17%.
Regarding “VEFKIDIVVLAFQK [CD4 P43, overlapping linear CD4 D2 peptide]”, the “inhibition of ⍺4β7 binding to D1D2 (in words)” value (from here on “inhibition … (in words)”) in test [4] was “reduced inhibition relative to pCD4^165-178”.
Consider “KIDIVVLAFQKASS [CD4 P44, overlapping linear CD4 D2 peptide]”, for which the “inhibition … (in words)” value in test [4] is “unable to inhibit”.
As to “QIKILGNQGSFLTKG [CD4 P9, linear CD4 D1 peptide overlapping the C'C'' β-strands and connecting loop]”, the “inhibition of ⍺4β7 binding to CD4 D1D2 coated surface” value in test [4] is reported as ~ 17%.
For “IVVLAFQKASSIVY [CD4 P45, overlapping linear CD4 D2 peptide]”, in test [4], the “inhibition … (in words)” value is “unable to inhibit”.

B1: MAdCAM-Ig (Fc fusion, human, UniProt Q13477 19-317, looked up)
chain: QSLQVKPLQVEPPEPVVAVALGASRQLTCRLACADRGASVQWRGLDTSLGAVQSDTGRSVLTVRNASLSAAGTRVCVGSCGGRTFQHTVQLLVYAFPDQLTVSPAALVPGDPEVACTAHKVTPVDPNALSFSLLVGGQELEGAQALGPEVQEEEEEPQGDEDVLFRVTERWRLPPLGTPVPPALYCQATMRLPGLELSHRQAIPVLHSPTSPEPPDTTSPESPDTTSPESPDTTSQEPPDTTSPEPPDKTSPEPAPQQGSTHTPRSPGSTRTRRPEISQAGPTQGEVIPTGSSKPAGDQ
notes: also called Hu-MAdCAM-Ig; recombinant MAdCAM-Ig
Turning to B1, in test [5], the Ka came to 1.12e+08 M⁻¹, the Kd is 8.92 nM, the off-rate constant (koff) turned out to be 0.000863 s⁻¹ and the kon came out at 96700 M⁻¹ s⁻¹.

B2: VCAM-Ig (Fc fusion, UniProt P19320 25-698, looked up)
chain: FKIETTPESRYLAQIGDSVSLTCSTTGCESPFFSWRTQIDSPLNGKVTNEGTTSTLTMNPVSFGNEHSYLCTATCESRKLEKGIQVEIYSFPKDPEIHLSGPLEAGKPITVKCSVADVYPFDRLEIDLLKGDHLMKSQEFLEDADRKSLETKSLEVTFTPVIEDIGKVLVCRAKLHIDEMDSVPTVRQAVKELQVYISPKNTVISVNPSTKLQEGGSVTMTCSSEGLPAPEIFWSKKLDNGNLQHLSGNATLTLIAMRMEDSGIYVCEGVNLIGKNRKEVELIVQEKPFTVEISPGPRIAAQIGDSVMLTCSVMGCESPSFSWRTQIDSPLSGKVRSEGTNSTLTLSPVSFENEHSYLCTVTCGHKKLEKGIQVELYSFPRDPEIEMSGGLVNGSSVTVSCKVPSVYPLDRLEIELLKGETILENIEFLEDTDMKSLENKSLEMTFIPTIEDTGKALVCQAKLHIDDMEFEPKQRQSTQTLYVNVAPRDTTVLVSPSSILEEGSSVNMTCLSQGFPAPKILWSRQLPNGELQPLSENATLTLISTKMEDSGVYLCEGINQAGRSRKEVELIIQVTPKDIKLTAFPSESVKEGDTVIISCTCGNVPETWIILKKKAETGDTVLKSIDGAYTIRKAQLKDAGVYECESKNKVGSQLRSLTLDVQGRENNKDYFSPE
notes: also called recombinant VCAM-Ig
Regarding B2, in test [5], the Ka amounted to 2.76e+07 M⁻¹, the Kd was determined as 36.3 nM, the koff was 0.00141 s⁻¹ and the kon came out at 38700 M⁻¹ s⁻¹.
